The target in one assay is HLA-C*14:02. Description: IEDB peptide-MHC binding, purified MHC/direct/fluorescence; filed as Kd, often an IC50 or EC50 that approximates it; ≥ and ≤ were set here for values at or beyond the usual limits of such assays. To be noted: source organism: Homo sapiens.
The target in assay [1] is HLA-A*02:01. The experiment in a line: IEDB peptide-MHC binding, purified MHC/competitive/fluorescence; ≥ and ≤ were set here for values at or beyond the usual limits of such assays. To be noted: source organism: Pan troglodytes.
Assay [2] has as its target HLA-B*07:02. Described as above. To be noted: source organism: Pan troglodytes.
The target in assay [3] is HLA-B*08:01. The assay is described as above. The conditions noted are these: source organism: Pan troglodytes.
A further assay addresses HLA-B*40:02. The description is as above. The conditions noted are these: source organism: Pan troglodytes.
The target in assay [4] is HLA-A*25:01. The description is as above. To be noted: source organism: Pan troglodytes.
The next assay concerns the target HLA-A*31:01. Described as above. The conditions noted are these: source organism: Pan troglodytes.
The target in assay [5] is HLA-A*03:01. The assay is described as above. The conditions noted are these: source organism: Pan troglodytes.
For assay [6], the target named is HLA-A*11:01. Described as above. To be noted: source organism: Pan troglodytes.
For a further assay, the target named is HLA-A*68:02. Described as above. The conditions noted are these: source organism: Pan troglodytes.
Assay [7] concerns the target HLA-A*24:02. The description is as above. To be noted: source organism: Pan troglodytes.
Another assay addresses HLA-B*35:01. The assay is described as above. The conditions noted are these: source organism: Pan troglodytes.
The target of assay [8] is HLA-B*18:01. Described as above. To be noted: source organism: Pan troglodytes.
In assay [9] the target is HLA-B*58:01. The assay is described as above. The conditions noted are these: source organism: Pan troglodytes.
The next assay has as its target HLA-B*14:02. The assay is described as above. The conditions noted are these: source organism: Pan troglodytes.
For a further assay, the target named is HLA-B*53:01. The assay is described as above. The conditions noted are these: source organism: Pan troglodytes.
For the next assay, the target named is HLA-B*44:03. The description is as above. To be noted: source organism: Pan troglodytes.
The target of assay [10] is HLA-B*51:01. Described as above. To be noted: source organism: Pan troglodytes.
A further assay has as its target HLA-B*37:01. Described as above. To be noted: source organism: Pan troglodytes.
Assay [11] deals with HLA-A*29:02. The description is as above. The conditions noted are these: source organism: Pan troglodytes.
Assay [12] addresses HLA-A*01:01. The assay is described as above. The conditions noted are these: source organism: Pan troglodytes.
Assay [13] concerns the target HLA-A*02:01. Description: IEDB peptide-MHC binding, purified MHC/direct/fluorescence; filed as Kd, often an IC50 or EC50 that approximates it; ≥ and ≤ were set here for values at or beyond the usual limits of such assays.
Assay [14] deals with HLA-B*07:02. Described as above.
The next assay has as its target HLA-B*40:01. The description is as above.
The target in assay [15] is HLA-B*08:01. The description is as above. To be noted: source organism: Influenza A virus (A/tern/Australia/1/04(H2N5)).
For a further assay, the target named is HLA-A*02:03. The description is as above.
The target in another assay is HLA-B*46:01. The assay is described as above.
A further assay addresses HLA-B*27:05. The description is as above. To be noted: source organism: Influenza A virus (A/tern/Australia/1/04(H2N5)).
A further assay concerns the target HLA-A*02:19. Described as above.
Another assay has as its target HLA-A*02:12. Described as above.
In assay [16] the target is HLA-A*03:01. Described as above. To be noted: source organism: Influenza A virus (A/tern/Australia/1/04(H2N5)).
In assay [17] the target is HLA-A*11:01. Described as above. The conditions noted are these: source organism: Influenza A virus (A/tern/Australia/1/04(H2N5)).
The next assay addresses HLA-A*02:11. The description is as above.
In assay [18] the target is HLA-A*24:02. The assay is described as above. The conditions noted are these: source organism: Influenza A virus (A/tern/Australia/1/04(H2N5)).
The target of assay [19] is HLA-B*18:01. Described as above. The conditions noted are these: source organism: Influenza A virus (A/tern/Australia/1/04(H2N5)).
For another assay, the target named is HLA-B*44:02. Described as above. The conditions noted are these: source organism: Influenza A virus (A/tern/Australia/1/04(H2N5)).
Assay [20] concerns the target HLA-B*58:01. The description is as above.
Another assay addresses HLA-A*02:06. Described as above. To be noted: source organism: Influenza A virus(A/swine/Henan/2/2004(H9N2)).
A further assay has as its target HLA-B*15:01. Described as above. To be noted: source organism: Influenza A virus (A/tern/Australia/1/04(H2N5)).
The target in a further assay is HLA-A*02:16. The description is as above. The conditions noted are these: source organism: Influenza A virus(A/swine/Henan/2/2004(H9N2)).
The target in assay [21] is HLA-A*01:01. The description is as above. The conditions noted are these: source organism: Influenza A virus (A/tern/Australia/1/04(H2N5)).
In assay [22] the target is HLA-A*25:01. The description is as above. To be noted: source organism: West Nile virus strain PTRoxo.
The target of a further assay is HLA-A*80:01. Described as above. The conditions noted are these: source organism: West Nile virus.
The target in assay [23] is HLA-B*51:01. The description is as above. The conditions noted are these: source organism: West Nile virus strain PTRoxo.
The target in assay [24] is HLA-A*29:02. Described as above. To be noted: source organism: West Nile virus strain PTRoxo.
The target of assay [25] is HLA-A*01:01. The experiment in a line: IEDB peptide-MHC binding, purified MHC/competitive/fluorescence; filed as Kd, often an IC50 or EC50 that approximates it; ≥ and ≤ were set here for values at or beyond the usual limits of such assays. The conditions noted are these: source organism: West Nile virus.
Another assay deals with HLA-B*15:02. Description: IEDB peptide-MHC binding, purified MHC/direct/fluorescence; filed as Kd, often an IC50 or EC50 that approximates it; ≥ and ≤ were set here for values at or beyond the usual limits of such assays. To be noted: source organism: dengue virus type 3.
[26] abbreviates: source organism: Influenza A virus (A/tern/Australia/1/04(H2N5)).
Setting [27] is: source organism: Influenza A virus(A/swine/Henan/2/2004(H9N2)).
Setting [28] is: source organism: West Nile virus strain PTRoxo.

Where only a bound is given, the exact number is not on record here.

In the Immune Epitope Database (IEDB) one finds Kd and IC50 data, which are given here for 4 sequences.

Turning to RPPYSSYGY, the Kd in the assay with HLA-C*14:02 was ≥ 20 µM. Besides, the IC50 with HLA-A*02:01 [1], with HLA-B*07:02 [2], with HLA-B*08:01 [3], with HLA-B*40:02, with HLA-A*25:01 [4] and with HLA-A*31:01 was ≥ 20 µM in each case. Besides, the IC50 in the assay with HLA-A*03:01 [5] was ≥ 20 µM; with HLA-A*11:01 [6], ≥ 20 µM; with HLA-A*68:02, ≥ 20 µM; with HLA-A*24:02 [7], ≥ 20 µM; with HLA-B*35:01 it was 0.0907 µM; in the assay with HLA-B*18:01 [8] it was ≥ 20 µM. The IC50 with HLA-B*58:01 [9], with HLA-B*14:02, in the assay with HLA-B*53:01, with HLA-B*44:03, with HLA-B*51:01 [10] and with HLA-B*37:01 was ≥ 20 µM in each case. In addition, the IC50 with HLA-A*29:02 [11] was 0.252 µM; with HLA-A*01:01 [12], ≥ 20 µM.

Take LLTEVETYV: the Kd with HLA-A*02:01 [13] (source organism: Influenza A virus (A/Puerto Rico/8/34/Mount Sinai(H1N1))) is 0.012 µM; with HLA-B*07:02 [14] (setting [26]), ≥ 20 µM; with HLA-B*40:01 (setting [26]) it was ≥ 20 µM; with HLA-B*08:01 [15], ≥ 20 µM; in the assay with HLA-A*02:03 (setting [27]), ≤ 0.001 µM; with HLA-B*46:01 (setting [26]), ≥ 20 µM. The Kd in the assay with HLA-B*27:05 was ≥ 20 µM; with HLA-A*02:19 (setting [27]) it was 0.002 µM; with HLA-A*02:12 (setting [27]), ≤ 0.001 µM; with HLA-A*03:01 [16], ≥ 20 µM; with HLA-A*11:01 [17] it was ≥ 20 µM; in the assay with HLA-A*02:11 (setting [27]), ≤ 0.001 µM. Moreover, the Kd with HLA-A*24:02 [18] was ≥ 20 µM; in the assay with HLA-B*18:01 [19], ≥ 20 µM; with HLA-B*44:02, ≥ 20 µM; with HLA-B*58:01 [20] (setting [26]) it was ≥ 20 µM; with HLA-A*02:06 it was ≤ 0.001 µM; in the assay with HLA-B*15:01 it was ≥ 20 µM. Further, the results for the Kd with HLA-A*02:16 and in the assay with HLA-A*01:01 [21] were ≤ 0.001 µM and ≥ 20 µM, respectively.

For the sequence MTRGLLGSY, the Kd is ≥ 20 µM with HLA-A*02:01 [13] (setting [28]); ≥ 20 µM with HLA-B*07:02 [14] (setting [28]); ≥ 20 µM with HLA-B*40:01 (setting [28]); ≥ 20 µM with HLA-A*02:03 (setting [28]); 0.009 µM in the assay with HLA-A*25:01 [22]; ≥ 20 µM in the assay with HLA-A*02:19 (setting [28]). In addition, the Kd in the assay with HLA-A*02:12 (setting [28]) was ≥ 20 µM; in the assay with HLA-A*02:11 (setting [28]), ≥ 20 µM; with HLA-B*58:01 [20] (setting [28]), ≥ 20 µM; in the assay with HLA-A*80:01, 0.173 µM; with HLA-B*51:01 [23], ≥ 20 µM; with HLA-A*29:02 [24], 0.099 µM. For the same sequence, the Kd with HLA-A*01:01 [25] was 0.519 µM.

Consider GMGEAAAIF, for which the Kd was 0.158 µM with HLA-B*15:02 and ≥ 20 µM with HLA-B*46:01 (source organism: Dengue virus 1 Singapore/S275/1990).

As a reminder, the Kd is the free concentration of one partner at which half of the binding sites on the other are occupied at equilibrium, for simple one-to-one binding. A higher Kd goes with a looser complex. The IC50 is the concentration at which inhibition is half-maximal. A lower IC50 goes with greater potency.
